# Experimental data as given in article PMC6138639, “The ZZ-type zinc finger of ZZZ3 modulates the ATAC complex-mediated histone acetylation and gene activation” (Nature Communications, 2018).
# Where no end group is shown, it is not given here.
# T1: ZZZ3 ZZ domain (aa 800–903), GST cleaved (human, UniProt Q8IYH5 800-903)
# T1 construct: ZZ domain of human ZZZ3, aa 800–903; also called WT ZZZ3 ZZ; source: E. coli BL21 (DE3) RIL, purified (glutathione Sepharose, PreScission cleavage, size-exclusion chromatography)
# T1 sequence (looked up): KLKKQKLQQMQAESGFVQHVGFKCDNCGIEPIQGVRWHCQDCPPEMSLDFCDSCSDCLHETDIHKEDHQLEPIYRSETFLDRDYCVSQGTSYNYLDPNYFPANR
# T2: ZZZ3 ZZ domain (aa 816–874) (human, UniProt Q8IYH5 816-874)
# T2 construct: 13C/15N isotope-labelled sample for the NMR structures
# T2 sequence (looked up): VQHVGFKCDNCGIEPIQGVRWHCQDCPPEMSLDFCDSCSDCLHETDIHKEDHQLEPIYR
# T3: GST-ZZZ3 ZZ domain (amino acids 800–903) (human, UniProt Q8IYH5 800-903)
# T3 construct: ZZ-type zinc finger domain of human ZZZ3, amino acids 800–903, in pGEX-6P1; also called GST-fused ZZZ3 ZZ; source: E. coli BL21 (DE3) RIL, purified (glutathione Sepharose 4B)
# T3 sequence (looked up): T1 sequence (looked up)
# B1: H3K4ac (1–12) peptide, unlabeled (peptide, UniProt P68431 2-13, looked up)
# peptide: ARTK(Ac)QTARKSTG
# notes: histone H3, aa 1–12; source: synthetic peptide
# B2: H3K4ac peptide (aa 1–8) (peptide, UniProt P68431 2-9, looked up)
# peptide: ARTK(Ac)QTAR
# notes: histone H3, aa 1–8; also called H3K4ac (1–8); source: synthetic peptide
# B3: histone H3 peptide of the N-terminal eight amino acids, biotinylated (peptide, UniProt P68431 2-9, looked up)
# peptide: ARTKQTAR
# modifications: also: biotinylated, position not given here
# notes: histone H3, N-terminal eight amino acids; also called The N-terminal eight amino acids of H3; source: synthetic peptide (CPC and Scilight Biotechnology)
# B4: unmodified histone H3 tail peptide (aa 1–12) (peptide, UniProt P68431 2-13, looked up)
# peptide: ARTKQTARKSTG
# notes: histone H3, aa 1–12; also called H3 (1–12); H3 peptide; source: synthetic peptide
# Columns and labels:
# Settings in all cases: both partners purified
# [1] = molecular target: T1, ZZZ3 ZZ domain (aa 800–903), GST cleaved; experiment: MST; displacement assay: unlabeled peptide added to a preformed complex of 5 μM ZZ (aa 800–903) and 80 nM C-terminal fluorescein-labeled H3 (1–12); 20 mM Tris–HCl pH 7.0, 150 mM NaCl, 3 mM DTT
# [2] = molecular target: T2, ZZZ3 ZZ domain (aa 816–874); experiment: NMR structure; solution structure; 2 mM 13C/15N-labeled ZZZ3 (816–874) with 10 mM H3 (1–12) or 4 mM H3K4ac (1–8); 298 K; 20 mM Tris–HCl pH 7.0, 100 mM NaCl, 5 mM DTT
# [3] = molecular target: T3, GST-ZZZ3 ZZ domain (amino acids 800–903); experiment: pull-down; peptide pulldown: 1 µg biotinylated histone peptide with 1–2 µg GST-fused protein in 50 mM Tris–HCl 7.5, 300 mM NaCl, 0.1% NP-40, overnight; streptavidin beads; western blot
binder,measurement,setting,value
B1,fold enhancement of binding over the unmodified H3 peptide,[1],3 fold
B2,binding result,[2],binds
B3,binding result,[3],binds
B4,binding result,[1],binds
same,binding result,[2],binds
